Substrate in data set [1]: O=C(O)CCC(=O)N[C@H](CCC(=O)O)C(=O)O
Briefly: steady-state kinetics. Format: biochemical, Bordetella bronchiseptica. The settings on record: Zn2+; pH 7.5.

Substrate in data set [2]: O=CN[C@H](CCC(=O)O)C(=O)O
Briefly: steady-state kinetics. The settings on record: Zn2+; pH 7.5. Format: biochemical, Bordetella bronchiseptica.

B1: Bb3285 (N-acyl-D-glutamate deacylase) (Bordetella bronchiseptica RB50) (protein)
chain: MQNAEKLDFKITGGWIIDGTGAPRRRADLGVRDGRIAAIGELGAHPARHAWDASGKIVAPGFIDVHGHDDLMFVEKPDLRWKTSQGITTVVVGNCGVSAAPAPLPGNTAAALALLGETPLFADVPAYFAALDAQRPMINVAALVGHANLRLAAMRDPQAAPTAAEQQAMQDMLQAALEAGAVGFSTGLAYQPGAVAQAAELEGLARVAAERRRLHTSHIRNEADGVEAAVEEVLAIGRGTGCATVVSHHKCMMPQNWGRSRATLANIDRAREQGVEVALDIYPYPGSSTILIPERAETIDDIRITWSTPHPECSGEYLADIAARWGCDKTTAARRLAPAGAIYFAMDEDEVKRIFQHPCCMVGSDGLPNDARPHPRLWGSFTRVLGRYVREARLMTLEQAVARMTALPARVFGFAERGVLQPGAWADVVVFDPDTVADRATWDEPTLASVGIAGVLVNGAEVFPQPPADGRPGQVLRAGA
With B1, the kcat/Km in the data set “steady-state kinetics [1]” worked out at 96000 ± 35000 M⁻¹ s⁻¹. Further, in “steady-state kinetics [2]”, the Km was 380 ± 35 µM and the kcat turned out to be 2200 ± 72 s⁻¹.

One may read the kcat/Km as the second-order rate constant that governs catalysis at low substrate concentration. Broadly, the Km is the substrate concentration at which the rate is half of its maximum. What is called kcat is the number of substrate molecules converted per active site and unit of time at saturation.

The values above are taken from article PMC2748305.
